Experimental data: paper PMC12380113

Assays:
[1] = biological target: T1, CD34 (mouse orbital fibroblasts) (Mus musculus) (UniProt Q64314); assay: flow cytometry; conditions: whole-cell binding to mouse orbital fibroblasts, 4 C, 1 h, SELEX binding buffer: DPBS, 4.5 mg/mL D-glucose, 5 mM MgCl2, 1 mg/mL BSA, 1 mg/mL yeast tRNA, flow cytometry at 4 C, pull-down lysis buffer 5 mM …
T1 sequence: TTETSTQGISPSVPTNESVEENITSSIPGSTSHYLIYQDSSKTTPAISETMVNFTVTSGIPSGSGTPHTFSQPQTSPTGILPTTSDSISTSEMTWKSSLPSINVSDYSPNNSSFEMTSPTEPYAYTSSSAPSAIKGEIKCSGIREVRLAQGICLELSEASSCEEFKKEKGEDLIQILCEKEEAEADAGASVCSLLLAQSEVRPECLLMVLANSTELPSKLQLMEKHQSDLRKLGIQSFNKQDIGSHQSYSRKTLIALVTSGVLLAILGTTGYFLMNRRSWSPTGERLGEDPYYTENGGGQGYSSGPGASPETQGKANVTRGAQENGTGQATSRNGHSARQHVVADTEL

[2] = biological target: T2, CD34 (human orbital fibroblasts) (Homo sapiens) (UniProt P28906); assay: flow cytometry; conditions: whole-cell binding to human orbital fibroblasts, 4 C, 1 h, SELEX binding buffer: DPBS, 4.5 mg/mL D-glucose, 5 mM MgCl2, 1 mg/mL BSA, 1 mg/mL yeast tRNA, flow cytometry at 4 C, pull-down lysis buffer 5 mM …
T2 sequence: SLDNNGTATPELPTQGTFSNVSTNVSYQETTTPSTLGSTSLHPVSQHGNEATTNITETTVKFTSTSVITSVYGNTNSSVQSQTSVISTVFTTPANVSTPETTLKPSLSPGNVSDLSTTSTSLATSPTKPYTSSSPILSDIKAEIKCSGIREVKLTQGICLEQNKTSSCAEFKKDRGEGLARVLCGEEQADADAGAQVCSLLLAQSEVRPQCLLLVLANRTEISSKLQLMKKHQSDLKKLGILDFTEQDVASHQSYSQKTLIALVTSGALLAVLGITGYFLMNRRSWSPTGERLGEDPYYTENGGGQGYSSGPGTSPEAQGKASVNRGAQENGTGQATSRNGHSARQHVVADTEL

Q: How did the Kd [1] turn out when “CAGCACCGTCAACTGAATCTCATTGCGGCGTCCGGCTGGACGTTATTGTTGGAACCGTGATGCGATGGAGATGT [CD34 Apt (FAM)]” was run?
A: 90.3 nM

Q: What about the Kd [2] of the same sequence?
A: 19.1 nM
